Results on one substance are retold here after article PMC4922585.

The target in assay [1] is TF S160A-FVIIa complex on THP-1 cells (UniProt P13726).
Assay [2] has as its target Wild-type TF-FVIIa complex on THP-1 cells (UniProt P13726).
The target of assay [3] is TF G164A-FVIIa complex on THP-1 cells (UniProt P13726).
Assay [4] addresses Wild-type TF-FVIIa complex on THP-1 cells (UniProt P13726). The source holds these as a separate data set.
Assay [5] has as its target TFLBR-FVIIa complex on THP-1 cells (UniProt P13726).

For “Purified human factor X (natural protein)”, the Km of FX activation by TF-FVIIa on THP-1 cells (Michaelis-Menten kinetics) in assay [1] was 0.117 µM; in assay [2] it was 0.134 µM; in assay [3], 0.191 µM. Moreover, the Km of FX activation by TF-FVIIa on THP-1 cells treated with HgCl2 (100 μM, 5 min) (FVIIa 10 nM, FX 25 to 1000 nM) stood at 0.137 µM in assay [4] and 0.223 µM in assay [5]. Also, the Km of FX activation by TF-FVIIa on THP-1 cells treated with control vehicle (FVIIa 10 nM, FX 25 to 1000 nM) in assay [4] stood at 0.187 µM; in assay [5], 0.196 µM.
